Where two headings read alike, the source gives them in different places.
T1: recombinant protein consisting of the extracellular domain of human TREM2 fused to the His tag (human, UniProt Q9NZC2 19-174)
T1 construct: also called His tagged hTREM2; His-TREM2
T1 sequence: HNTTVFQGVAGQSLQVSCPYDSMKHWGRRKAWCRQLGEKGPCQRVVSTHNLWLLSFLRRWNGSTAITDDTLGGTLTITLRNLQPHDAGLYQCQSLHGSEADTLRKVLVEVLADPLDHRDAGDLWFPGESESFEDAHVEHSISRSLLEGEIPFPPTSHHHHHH

T2: human TREM2 (hTREM2) on cells (human, UniProt Q9NZC2 19-230)
T2 construct: also called hTREM2 expressing HEK293
T2 sequence: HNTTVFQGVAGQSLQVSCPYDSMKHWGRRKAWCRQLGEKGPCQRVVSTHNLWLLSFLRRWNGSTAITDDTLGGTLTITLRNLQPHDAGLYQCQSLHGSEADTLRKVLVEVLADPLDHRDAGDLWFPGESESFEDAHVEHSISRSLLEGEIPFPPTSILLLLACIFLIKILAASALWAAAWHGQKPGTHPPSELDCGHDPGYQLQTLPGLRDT

T3: recombinant protein consisting of the extracellular domain of human TREM2 fused to the His tag (UniProt Q9NZC2 19-174)
T3 chain: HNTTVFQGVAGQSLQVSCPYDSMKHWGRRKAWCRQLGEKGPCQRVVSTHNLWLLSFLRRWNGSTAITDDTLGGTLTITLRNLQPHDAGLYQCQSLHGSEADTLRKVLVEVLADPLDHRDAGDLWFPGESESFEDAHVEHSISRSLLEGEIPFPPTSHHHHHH

T4: soluble TREM2 protein (human, UniProt Q9NZC2 19-157)
T4 construct: also called TREM2 in cell culture supernatant (Sup)
T4 sequence: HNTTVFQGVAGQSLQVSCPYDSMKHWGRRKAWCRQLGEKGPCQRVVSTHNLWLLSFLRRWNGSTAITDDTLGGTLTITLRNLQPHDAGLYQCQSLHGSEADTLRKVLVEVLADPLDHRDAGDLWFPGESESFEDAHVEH

B1: 83E10B12 (antibody, V domains shown)
VH: QVQLQESGPELVKPGASVKISCKASGYIFSYSWMNWVKQRPGKGLEWIGRIYPGDGDADYNGKFKGKATLTADKSSNTAYMQLTSLTSEDSAVYFCARLHIYDGYYVSVYWGQGTLVTVSA
VL: DIQMTQTTSCLSASLGDRVTISCRASQDINNYLSWYQQKPDGTVKLLIYYTSKLHSGVPSRFSGSGSGTDYSLTIGNLEQEDVATYFCQQGDTLPWTFGGGTRLEIK
notes: Biotin conjugated in sup ELISA, cell-based ELISA and flow cytometry
B2: 80E3C7 (antibody, V domains shown)
VH: QVQLQQPGAEPLKPGASVKMSCEASGYTFTNFWITWMKLRPGQGLEWIGDIYPGTGNTNYNEKFKSRATLTVDTSSTTAYMQLSSLTSEDSAVYYCAREAYYTNPGFAYWGHGTLVTVSA
VL: DVLMTQSPLSLPVNLGDQASISCKSSQNIVHSNGNTYLEWYLQRPGQSPKLLIYKVSNRFSGVPDRFSGSGSGTDFTLKISRVEAEDLGVYYCFQGSHVPYTFGGGTKLEIK
notes: Biotin conjugated in sup ELISA, cell-based ELISA and flow cytometry; also called anti-TREM2 antibody (E3C7); TREM2 Ab E3C7
B3: 54H2C1 (antibody, V domains shown)
VH: QVQLQQPGAEPLTPGASVKMSCEASGYTFTNFWITWVKLRPGQGLEWIGDIYPGSGNTNYNEKFKSRATLTVDTSSTTAYMQLSSLTSEDSAVYYCAREAYYTNPGFAYWGHGTLVTVSA
VL: DVLMTQSPLSLPVNLGDQASISCKSSQNIVHSNGNTYLEWYLQRPGQSPKLLIYKVSNRFSGVPDRFSGSGSGTDFTLKISRVEAEDLGLYYCFQGSHVPYTFGGGTKLEIK
notes: as for B1

Experiments:
[1] = target: T1, recombinant protein consisting of the …; assay: direct ELISA
Method: (§1) Ninety six-Well ELISA microplate was coated with 0.5 μg/mL, 100 μl/well His tagged hTREM2 diluted in PBS pH 7.4, and incubated at 4° C. overnight. The plate was rinsed three times with 0.05% tween20 in PBS, blocked with 1% BSA in PBS at room temperature (RT) for 1 hr, and rinsed again. The plates was incubated with the anti hTREM2 antibodies (100 μl/well) for 2 hrs at indicated concentration, at RT. Plate was rinsed and incubated with Peroxidase-AffiniPure Goat anti Mouse IgG, Fcg fragment specific (min X Hu, Bov, Hrs, Sr Prot; Jackson ImmunoResearch) for 20 min at RT. The plate was rinsed and incubated with TMB Reagent (TM4500, Scytek) for 20 min at RT, followed by the addition of Stop Solution 2N Sulfuric Acid (DY994, R&D). OD was measured using an ELISA plate reader at dual wavelengths (450 nm and 570 nm)

[2] = target: T2, human TREM2 (hTREM2) on cells; assay: flow cytometry on BMDM
Method: TREM2 KO and hTREM2 BMDM were washed with MACS buffer (PBS pH 7.2, 0.5% BSA and 2 mM EDTA) and stained with biotin conjugated anti hTREM2 antibodies (10 μg/mL) followed by Washing with MACS buffer and APC-streptavidin (Biolegend, 405207) incubation, then analyzed by flow cytometer (LSRII, BD).

[3] = target: T3, recombinant protein consisting of the …; assay: SPR
soluble TREM2 protein = target: T4, soluble TREM2 protein; assay: sup ELISA, hTREM2 vs WT 293HEK supernatant
Method: Supernatant was collected, centrifuged for 5 min at 900 g and filtered (0.45 μm). Ninety six-well ELISA microplate was coated with 0.2 μg/well of anti human TREM2 Antibody (AF1828, R&D) diluted in PBS, and incubated at 4° C. overnight. The plate was rinsed three times with 0.05% tween20 in PBS, blocked with 1% BSA in PBS at room temperature (RT) for 1 hr, and rinsed again. The plates was incubated with the cell culture supernatant (100 μl/well) for 2 hrs at RT for and rinsed again. The plate was incubated with 0.1 μg biotinylayed anti hTREM2 antibodies for 2 hrs at RT. After incubation, the plate was rinsed and incubated with streptavidin-HRP (DY998, R&D) for 20 min at RT. The plate was rinsed and incubated with TMB Reagent (TM4500, Scytek) for 20 min at RT, followed by the addition of Stop Solution 2N Sulfuric Acid (DY994, R&D). OD was measured using an ELISA plate reader at dual wavelengths (450 nm and 570 nm)
(§2) A. Cells culture supernatant (Sup) was used for soluble TREM2 protein binding capability test of 18 hybridoma derived monoclonal antibodies by direct ELISA. B. Cells were captured in 96 wells plate and were used for cell based ELISA of 18 hybridoma derived monoclonal antibodies. OD values positive cells (hTREM2 expressing HEK293) and negative cells (WT HEK293) are showing in the table.

[4] = target: T2, human TREM2 (hTREM2) on cells; assay: cell-based ELISA, hTREM2 vs WT 293HEK cells
Method: Cells were washed three times with PBS and blocked (5% FBS, 1% BSA in PBS) for 2 hrs at RT. Cells were washed with 1% BSA in PBS and were incubated with 0.1 ug (or indicated amount) obiotinylayed anti hTREM2 antibodies for 4 hrs at RT. After incubation, cells were incubated with streptavidin-HRP (DY998, R&D) for 20 min at RT. The cells were washed and incubated with TMB Reagent (TM4500, Scytek) for 30 min at RT, followed by the addition of Stop Solution 2N Sulfuric Acid (DY994, R&D). OD was measured using an ELISA plate reader at dual wavelengths (450 nm and 570 nm). Biotinylation of Antibodies was done using EZ-Link™ Sulfo-NHS-LC-Biotinylation kit (Thermo Fisher Scientific) according to manufacturer's instructions.
as §2

[5] = target: T1, recombinant protein consisting of the …; assay: direct ELISA; highest dilution with S/B >= 2.1
Method: as §1
(§3) Purity is measured by SDS-PAGE. Quantity of endotoxin (EU/mg) is measured by LAL assay. Titer measured by direct ELISA, while the title value is the highest dilution with S/B (Signal/Blank) >= 2.1

[6] = target: T1, recombinant protein consisting of the …; assay: direct ELISA; highest dilution with S/B >= 2.1; remark: listed apart in the source
Method: as §1, §3

[7] = target: T1, recombinant protein consisting of the …; assay: direct ELISA, coated His-TREM2 0.5 ug/mL, Ab stock 1 mg/mL
Method: as §1

| Binder | direct ELISA positive/negative [1] [ratio] | FACS positive/negative BMDM [2] [ratio] | Kd [3] [pM] | sup ELISA positive/negative (293HEK) (soluble TREM2 protein) [ratio] | Cell based ELISA positive/negative [4] [ratio] | Titer [5] [dilution] | Titer [6] [dilution] | OD at dilution 1000 [7] [OD] | OD at dilution 3000 [7] [OD] | OD at dilution 9000 [7] [OD] | OD at dilution 27000 [7] [OD] | OD at dilution 81000 [7] [OD] | OD at dilution 243000 [7] [OD] | OD at dilution 729000 [7] [OD] | OD at dilution 2187000 [7] [OD] | OD at dilution 6561000 [7] [OD] | OD at dilution 19683000 [7] [OD] |
| --- | --- | --- | --- | --- | --- | --- | --- | --- | --- | --- | --- | --- | --- | --- | --- | --- | --- |
| B1 | 34.8 | 2.58 | 32.1 | 27.9 | 1.91 | 243000 | 243000 | 2.59 | 2.49 | 1.98 | 0.843 | 0.375 | 0.179 | 0.099 | 0.068 | 0.07 | 0.053 |
| B2 | 33.4 | 1.87 | 0.0275 | 24.9 | 2.8 | 2.19e+06 | 2.19e+06 | 2.02 | 2.12 | 2.16 | 1.76 | 1.2 | 0.608 | 0.281 | 0.145 | 0.092 | 0.085 |
| B3 | 33.9 | 2.72 | 399 | 25.1 | 2.69 | 729000 | 729000 | 1.4 | 1.35 | 1.18 | 0.967 | 0.586 | 0.276 | 0.147 | 0.106 | 0.087 | 0.069 |

Reference: US20240239886A1 (YEDA RESEARCH AND DEVELOPMENT, published 2024)
